Data from US20240270821A1, “GIP/GLP1/GCG TRI-RECEPTOR AGONISTS AND USES THEREOF” (priority 2023, published 2024).
Residue numbers refer to the chain shown, from its start.

Assays:
Assay in all cases: cell-based or functional assay
hGLP-1R = hGLP-1R (Homo sapiens, UniProt P43220)
[1] = molecular target: human glucagon receptor (human) (UniProt P47871)
[2] = molecular target: T1, human GIP receptor (human) (UniProt P48546)
T1 sequence (looked up): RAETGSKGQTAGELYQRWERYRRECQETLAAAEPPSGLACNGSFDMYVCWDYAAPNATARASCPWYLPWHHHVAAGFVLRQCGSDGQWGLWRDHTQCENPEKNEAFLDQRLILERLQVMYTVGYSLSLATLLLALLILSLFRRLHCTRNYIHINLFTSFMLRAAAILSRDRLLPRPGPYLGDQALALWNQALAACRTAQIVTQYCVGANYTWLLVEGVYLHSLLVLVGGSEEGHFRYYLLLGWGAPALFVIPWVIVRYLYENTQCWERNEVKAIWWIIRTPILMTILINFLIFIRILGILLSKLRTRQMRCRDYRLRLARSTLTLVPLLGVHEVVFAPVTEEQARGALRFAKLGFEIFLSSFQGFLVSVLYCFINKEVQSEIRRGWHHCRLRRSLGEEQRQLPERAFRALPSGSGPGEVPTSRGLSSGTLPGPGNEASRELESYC

hGLP-1R, sequence (P43220 24-463): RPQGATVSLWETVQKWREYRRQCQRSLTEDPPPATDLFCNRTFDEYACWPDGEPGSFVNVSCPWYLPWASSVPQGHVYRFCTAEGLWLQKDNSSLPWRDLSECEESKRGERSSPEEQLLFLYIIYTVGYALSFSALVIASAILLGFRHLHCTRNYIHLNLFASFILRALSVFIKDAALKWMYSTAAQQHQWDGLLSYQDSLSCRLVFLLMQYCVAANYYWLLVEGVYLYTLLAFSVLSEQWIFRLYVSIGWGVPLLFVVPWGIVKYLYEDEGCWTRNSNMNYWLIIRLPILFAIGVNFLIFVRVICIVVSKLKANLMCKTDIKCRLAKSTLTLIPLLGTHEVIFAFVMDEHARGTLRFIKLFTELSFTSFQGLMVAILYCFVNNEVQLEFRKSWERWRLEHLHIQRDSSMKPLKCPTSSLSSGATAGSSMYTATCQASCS
human glucagon receptor (human), sequence (P47871 26-477): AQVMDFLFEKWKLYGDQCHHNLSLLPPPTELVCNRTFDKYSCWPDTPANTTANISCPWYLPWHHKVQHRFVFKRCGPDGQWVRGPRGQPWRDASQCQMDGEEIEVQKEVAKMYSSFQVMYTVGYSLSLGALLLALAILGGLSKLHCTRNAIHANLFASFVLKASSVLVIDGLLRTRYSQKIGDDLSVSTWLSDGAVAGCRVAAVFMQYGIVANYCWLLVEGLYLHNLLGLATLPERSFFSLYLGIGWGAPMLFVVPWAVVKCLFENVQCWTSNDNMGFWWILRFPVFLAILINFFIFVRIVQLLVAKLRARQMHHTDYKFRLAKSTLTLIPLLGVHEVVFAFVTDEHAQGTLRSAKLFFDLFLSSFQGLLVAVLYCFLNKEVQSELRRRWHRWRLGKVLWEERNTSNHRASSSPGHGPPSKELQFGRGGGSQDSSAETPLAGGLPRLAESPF

B1: Example 161 (peptide)
chain: YXQGTFTSDFSXXLDKKAQXAFIEYLLEGGESSGAPPPGGS
modifications: non-natural residues, lysine acylation, C-terminal amide; synthetic construct; SITE 2: note = 2-Aminoisobutyric Acid; SITE 12: note = L-ornithine; SITE 13: note = alpha-methyl-leucine; SITE 17: note = Lysine is chemically modified through conjugation of the epsilon-amino group of the Lysine side chain with (2-[2-(2-Amino-ethoxy)-ethoxy]-acetyl)-(gamma-Glu)
hGLP-1R
  Relative cAMP EC50, nM (0.1% casein): 5.22 nM
  cAMP Rel EC50, nM (1% HSA): 963 nM
[1]
  Relative cAMP EC50, nM (0.1% casein): 4.83 nM
  cAMP Rel EC50, nM (1% HSA): 902 nM
[2]
  Relative cAMP EC50, nM (0.1% casein): 0.555 nM
  cAMP Rel EC50, nM (1% HSA): 87.3 nM

B2: Example 170 (peptide)
chain: B1 chain with Y25W, E31H, G39S
modifications: Lys acylated with AEEA-γGlu-C18 diacid; non-natural residues; C-amide; synthetic construct; SITE 2: note = 2-Aminoisobutyric Acid; SITE 12: note = L-ornithine; SITE 13: note = alpha-methyl-leucine; SITE 17: note = Lysine is chemically modified through conjugation of the epsilon-amino group of the Lysine side chain with (2-[2-(2-Amino-ethoxy)-ethoxy]-acetyl)-(gamma-Glu)
hGLP-1R
  Relative cAMP EC50, nM (0.1% casein): 4.11 nM
  cAMP Rel EC50, nM (1% HSA): 361 nM
[1]
  Relative cAMP EC50, nM (0.1% casein): 5.29 nM
  cAMP Rel EC50, nM (1% HSA): 1800 nM
[2]
  Relative cAMP EC50, nM (0.1% casein): 0.401 nM
  cAMP Rel EC50, nM (1% HSA): 43.5 nM

B3: Example 210 (peptide)
chain: B1 chain with G29A, E31P, G39S, S41T
modifications: non-natural residues, lysine acylation, C-terminal amide; synthetic construct; SITE 2: note = 2-Aminoisobutyric Acid; SITE 12: note = L-ornithine; SITE 13: note = alpha-methyl-leucine; SITE 17: note = Lysine is chemically modified through conjugation of the epsilon-amino group of the Lysine side chain with (2-[2-(2-Amino-ethoxy)-ethoxy]-acetyl)-(gamma-Glu)
hGLP-1R
  Relative cAMP EC50: 1.44 nM
[1]
  Relative cAMP EC50: 2.81 nM
[2]
  Relative cAMP EC50: 0.153 nM

B4: Example 156 (peptide)
chain: B1 chain with G29A, E31P, A35E, G39S, S41T
modifications: (AEEA)2-γGlu-C18 diacid on Lys; non-natural residues; amide; synthetic construct; SITE 2: note = 2-Aminoisobutyric Acid; SITE 12: note = L-ornithine; SITE 13: note = alpha-methyl-leucine; SITE 17: note = Lysine is chemically modified through conjugation of the epsilon-amino group of the Lysine side chain with (2-[2-(2-Amino-ethoxy)-ethoxy]-acetyl)2-(gamma-Glu)
hGLP-1R
  Relative cAMP EC50, nM (0.1% casein): 3.37 nM
  cAMP Rel EC50, nM (1% HSA): 695 nM
[1]
  Relative cAMP EC50, nM (0.1% casein): 3.62 nM
  cAMP Rel EC50, nM (1% HSA): 1520 nM
[2]
  Relative cAMP EC50, nM (0.1% casein): 0.208 nM
  cAMP Rel EC50, nM (1% HSA): 25.8 nM

B5: Example 191 (peptide)
chain: B1 chain with F10X, G29X, E31P, G39S
modifications: non-natural residues; lysine acylated AEEA-γGlu-C18 diacid; C-terminal amide; synthetic construct; SITE 2: note = 2-Aminoisobutyric Acid; SITE 10: note = 4-cyano-L-phenylalanine; SITE 12: note = L-ornithine; SITE 13: note = alpha-methyl-leucine; SITE 17: note = Lysine is chemically modified through conjugation of the epsilon-amino group of the Lysine side chain with (2-[2-(2-
hGLP-1R
  Relative cAMP EC50, nM (0.1% casein): 2.48 nM
[1]
  Relative cAMP EC50, nM (0.1% casein): 2.11 nM
[2]
  Relative cAMP EC50, nM (0.1% casein): 0.422 nM

B6: Example 213 (peptide)
chain: B1 chain with G29A, E31P, G39S, S41T
modifications: non-natural residues, AEEA-γGlu-C18 diacid acylation; synthetic construct; SITE 2: note = 2-Aminoisobutyric Acid; SITE 12: note = L-ornithine; SITE 13: note = alpha-methyl-leucine; SITE 17: note = Lysine is chemically modified through conjugation of the epsilon-amino group of the Lysine side chain with (2-[2-(2-Amino-ethoxy)-ethoxy]-acetyl)-(gamma-Glu)
hGLP-1R
  Relative cAMP EC50: 1.9 nM
[1]
  Relative cAMP EC50: 3.61 nM
[2]
  Relative cAMP EC50: 0.124 nM

B7: Example 149 (peptide)
chain: B1 chain with X12R, G39S
modifications: Aib, alpha-methyl-Leu, lipidated Lys, C-terminal amide; synthetic construct; SITE 2: note = 2-Aminoisobutyric Acid; SITE 13: note = alpha-methyl-leucine; SITE 17: note = Lysine is chemically modified through conjugation of the epsilon-amino group of the Lysine side chain with (2-[2-(2-Amino-ethoxy)-ethoxy]-acetyl)2-(gamma-Glu)-CO-(CH2 )16-CO2H; SITE 20:
hGLP-1R
  Relative cAMP EC50, nM (0.1% casein): 3.85 nM
  cAMP Rel EC50, nM (1% HSA): 801 nM
[1]
  Relative cAMP EC50, nM (0.1% casein): 12.6 nM
  cAMP Rel EC50, nM (1% HSA): 1420 nM
[2]
  Relative cAMP EC50, nM (0.1% casein): 0.46 nM
  cAMP Rel EC50, nM (1% HSA): 44.9 nM

B8: Example 182 (peptide)
chain: B1 chain with G29X, E31H, G39S, S41T
modifications: Aib, Orn, alpha-methyl-Leu, lipidated Lys, C-terminal amide; synthetic construct; SITE 2: note = 2-Aminoisobutyric Acid; SITE 12: note = L-ornithine; SITE 13: note = alpha-methyl-leucine; SITE 17: note = Lysine is chemically modified through conjugation of the epsilon-amino group of the Lysine side chain with (2-[2-(2-Amino-ethoxy)-ethoxy]-acetyl)2-(gamma-Glu)
hGLP-1R
  Relative cAMP EC50, nM (0.1% casein): 4.8 nM
  cAMP Rel EC50, nM (1% HSA): 398 nM
[1]
  Relative cAMP EC50, nM (0.1% casein): 5.33 nM
  cAMP Rel EC50, nM (1% HSA): 1480 nM
[2]
  Relative cAMP EC50, nM (0.1% casein): 0.0781 nM
  cAMP Rel EC50, nM (1% HSA): 9.95 nM

B9: Example 219 (peptide)
chain: B1 chain with L27I, G29X, G39S, S41E
modifications: non-natural residues; lipidated Lys; C-terminal amide; synthetic construct; SITE 2: note = 2-Aminoisobutyric Acid; SITE 12: note = L-ornithine; SITE 13: note = alpha-methyl-leucine; SITE 17: note = Lysine is chemically modified through conjugation of the epsilon-amino group of the Lysine side chain with (2-[2-(2-Amino-ethoxy)-ethoxy]-acetyl)-(gamma-Glu)
hGLP-1R
  Relative cAMP EC50: 0.835 nM
[1]
  Relative cAMP EC50: 7.77 nM
[2]
  Relative cAMP EC50: 0.119 nM

B10: Example 147 (peptide)
chain: B1 chain with X12K, G39S
modifications: Aib, αMeL, (AEEA)2-γGlu-C18 diacid lysine acylation, C-terminal amide; synthetic construct; SITE 2: note = 2-Aminoisobutyric Acid; SITE 13: note = alpha-methyl-leucine; SITE 17: note = Lysine is chemically modified through conjugation of the epsilon-amino group of the Lysine side chain with (2-[2-(2-Amino-ethoxy)-ethoxy]-acetyl)2-(gamma-Glu)-CO-(CH2 )16-CO2H; SITE 20:
hGLP-1R
  Relative cAMP EC50, nM (0.1% casein): 4.26 nM
  cAMP Rel EC50, nM (1% HSA): 964 nM
[1]
  Relative cAMP EC50, nM (0.1% casein): 4.39 nM
  cAMP Rel EC50, nM (1% HSA): 877 nM
[2]
  Relative cAMP EC50, nM (0.1% casein): 0.343 nM
  cAMP Rel EC50, nM (1% HSA): 108 nM

B11: Example 160 (peptide)
chain: B1 chain with E31P, G39E, S41T
modifications: Aib, Orn, αMeL, acylated Lys, amide; synthetic construct; SITE 2: note = 2-Aminoisobutyric Acid; SITE 12: note = L-ornithine; SITE 13: note = alpha-methyl-leucine; SITE 17: note = Lysine is chemically modified through conjugation of the epsilon-amino group of the Lysine side chain with (2-[2-(2-Amino-ethoxy)-ethoxy]-acetyl)-(gamma-Glu)
hGLP-1R
  Relative cAMP EC50, nM (0.1% casein): 5.39 nM
  cAMP Rel EC50, nM (1% HSA): 482 nM
[1]
  Relative cAMP EC50, nM (0.1% casein): 4.32 nM
  cAMP Rel EC50, nM (1% HSA): 479 nM
[2]
  Relative cAMP EC50, nM (0.1% casein): 0.354 nM
  cAMP Rel EC50, nM (1% HSA): 44.4 nM

B12: Example 152 (peptide)
chain: B1 chain with E28A, E31P, A35E, G39E
modifications: Aib, Orn, αMeL; acylated Lys (AEEA-γGlu-C18 diacid); C-terminal amide; synthetic construct; SITE 2: note = 2-Aminoisobutyric Acid; SITE 12: note = L-ornithine; SITE 13: note = alpha-methyl-leucine; SITE 17: note = Lysine is chemically modified through conjugation of the epsilon-amino group of the Lysine side chain with (2-[2-(2-Amino-ethoxy)-ethoxy]-acetyl)-(gamma-Glu)
hGLP-1R
  Relative cAMP EC50, nM (0.1% casein): 4.03 nM
  cAMP Rel EC50, nM (1% HSA): 491 nM
[1]
  Relative cAMP EC50, nM (0.1% casein): 6.91 nM
  cAMP Rel EC50, nM (1% HSA): 1090 nM
[2]
  Relative cAMP EC50, nM (0.1% casein): 0.259 nM
  cAMP Rel EC50, nM (1% HSA): 23.2 nM

B13: Example 184 (peptide)
chain: B1 chain with G29X, E31X, G39S, S41T
modifications: non-natural residues, acylated Lys, C-terminal amide; synthetic construct; SITE 2: note = 2-Aminoisobutyric Acid; SITE 12: note = L-ornithine; SITE 13: note = alpha-methyl-leucine; SITE 17: note = Lysine is chemically modified through conjugation of the epsilon-amino group of the Lysine side chain with (2-[2-(2-Amino-ethoxy)-ethoxy]-acetyl)2-(gamma-Glu)
hGLP-1R
  Relative cAMP EC50, nM (0.1% casein): 5.02 nM
  cAMP Rel EC50, nM (1% HSA): 465 nM
[1]
  Relative cAMP EC50, nM (0.1% casein): 5.23 nM
  cAMP Rel EC50, nM (1% HSA): 1050 nM
[2]
  Relative cAMP EC50, nM (0.1% casein): 0.162 nM
  cAMP Rel EC50, nM (1% HSA): 16.2 nM

B14: Example 190 (peptide)
chain: B1 chain with F10X, G29X, E31H, G39S
modifications: Aib, F(4CN), Orn, αMeL; lysine acylated C18 diacid; amide; synthetic construct; SITE 2: note = 2-Aminoisobutyric Acid; SITE 10: note = 4-cyano-L-phenylalanine; SITE 12: note = L-ornithine; SITE 13: note = alpha-methyl-leucine; SITE 17: note = Lysine is chemically modified through conjugation of the epsilon-amino group of the Lysine side chain with (2-[2-(2-
hGLP-1R
  Relative cAMP EC50, nM (0.1% casein): 1.41 nM
  cAMP Rel EC50, nM (1% HSA): 172 nM
[1]
  Relative cAMP EC50, nM (0.1% casein): 2.95 nM
  cAMP Rel EC50, nM (1% HSA): 331 nM
[2]
  Relative cAMP EC50, nM (0.1% casein): 0.306 nM
  cAMP Rel EC50, nM (1% HSA): 59.4 nM

B15: Example 180 (peptide)
chain: B1 chain with G29X, G39S, S41T
modifications: Aib, Orn, αMeL, acylated K, C-terminal amide; synthetic construct; SITE 2: note = 2-Aminoisobutyric Acid; SITE 12: note = L-ornithine; SITE 13: note = alpha-methyl-leucine; SITE 17: note = Lysine is chemically modified through conjugation of the epsilon-amino group of the Lysine side chain with (2-[2-(2-Amino-ethoxy)-ethoxy]-acetyl)2-(gamma-Glu)
hGLP-1R
  Relative cAMP EC50, nM (0.1% casein): 5.08 nM
  cAMP Rel EC50, nM (1% HSA): 891 nM
[1]
  Relative cAMP EC50, nM (0.1% casein): 2.44 nM
  cAMP Rel EC50, nM (1% HSA): 1320 nM
[2]
  Relative cAMP EC50, nM (0.1% casein): 0.14 nM
  cAMP Rel EC50, nM (1% HSA): 24 nM
